Article PMC10903946 (Genes & Development, 2024)

Target: T1, mCherry-LacR-MITF (human, UniProt O75030-9 1-419)
T1 sequence: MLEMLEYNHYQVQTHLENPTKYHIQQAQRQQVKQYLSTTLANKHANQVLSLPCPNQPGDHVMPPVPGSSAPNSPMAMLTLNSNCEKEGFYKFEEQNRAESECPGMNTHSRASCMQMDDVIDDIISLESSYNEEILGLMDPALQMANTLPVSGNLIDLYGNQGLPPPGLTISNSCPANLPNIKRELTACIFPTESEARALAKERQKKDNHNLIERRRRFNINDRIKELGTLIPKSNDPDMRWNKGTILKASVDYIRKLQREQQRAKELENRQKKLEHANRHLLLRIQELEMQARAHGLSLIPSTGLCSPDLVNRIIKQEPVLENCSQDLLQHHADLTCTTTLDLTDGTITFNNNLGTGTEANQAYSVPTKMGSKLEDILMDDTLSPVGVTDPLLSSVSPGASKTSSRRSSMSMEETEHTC
Experiment: LacR/LacO nuclear tethering assay

- median enrichment of GFP at the mCherry dot over the rest of the nucleus: 7 fold
B1: NBS1-GFP (natural protein)
chain: MWKLLPAAGPAGGEPYRLLTGVEYVVGRKNCAILIENDQSISRNHAVLTANFSVTNLSQTDEIPVLTLKDNSKYGTFVNEEKMQNGFSRTLKSGDGITFGVFGSKFRIEYEPLVACSSCLDVSGKTALNQAILQLGGFTVNNWTEECTHLVMVSVKVTIKTICALICGRPIVKPEYFTEFLKAVESKKQPPQIESFYPPLDEPSIGSKNVDLSGRQERKQIFKGKTFIFLNAKQHKKLSSAVVFGGGEARLITEENEEEHNFFLAPGTCVVDTGITNSQTLIPDCQKKWIQSIMDMLQRQGLRPIPEAEIGLAVIFMTTKNYCDPQGHPSTGLKTTTPGPSLSQGVSVDEKLMPSAPVNTTTYVADTESEQADTWDLSERPKEIKVSKMEQKFRMLSQDAPTVKESCKTSSNNNSMVSNTLAKMRIPNYQLSPTKLPSINKSKDRASQQQQTNSIRNYFQPSTKKRERDEENQEMSSCKSARIETSCSLLEQTQPATPSLWKNKEQHLSENEPVDTNSDNNLFTDTDLKSIVKNSASKSHAAEKLRSNKKREMDDVAIEDEVLEQLFKDTKPELEIDVKVQKQEEDVNVRKRPRMDIETNDTFSDEAVPESSKISQENEIGKKRELKEDSLWSAKEISNNDKLQDDSEMLPKKLLLTEFRSLVIKNSTSRNPSGINDDYGQLKNFKKFKKVTYPGAGKLPHIIGGSDLIAHHARKNTELEEWLRQEMEVQNQHAKEESLADDLFRYNPYLKRRR
